Laboratory results reported in the DeepSol protein solubility set.

Test: soluble on expression in E. coli; label from the status in PepcDB or PDB records

Soluble on expression in E. coli, not soluble:
MGSDKIHHHHHHMKGVTLRGLEVFEALSRTGSVAQASTLTGLSQPAVSQQLRNLEQALGTDLVDHGRRPMVLTPAGRAFLPRAETVLSQLRLAQSELTVMDLTHLSTLSMGLIDDFDNDLTPRLATLLADSLTKCRFKLITAPSHEISEAMKARRLHIAVAATSGEVHDGIIEYPLVRDPFILVAPRGVVSKGGDMLASLQGLPLLRYAREQLIGRQIEAHLARQKLDFEERFEIGSHLALMAMVARRLGWAVTTPLGFMRAERFHDEVEAFALPFAAFSRRISLFAGADWADRVPRDVAETMRRLVQSQIIDPAVARLPWLGGELRVIES
MGSDKIHHHHHHMKIAFVSTRGIPNNYGGFEQFAEYISVGMAQRGHEVVVYSPKFHPYQESTYKGVRIKHIYSPETWMGSSVGSFFYDFASLRDALKKEDFDIIYEAGYTSIIPAYIWFNVKKRKRPIFTTNMDGLENKRSKFSPMVRRFLDWEEKMAVKYSHYLIADNMGIHDYYKEKYGKESKFLAYGADIHDDFKAEYLEEFGLKSEEYYILIARLEPENNIVMAIEGYLHSKENGRRPLIVVGKTNTPHGKELVEKYGNERNVEFVGGIYDFKKLDSVRHFSKAYFHGHSVGGTNPSLLEAMAAGCFIFAHDNIFNRAVLKENAFYYPSADKVTEYLNRIDTIAEGSKIQYTARNIEVIRNEYSWESLIDKHEKYFYWLLSQKQ
MGSDKIHHHHHHMKIAIVGSGNGAVTAAVDMVDKGHDVRLYCRNESISKFDVALEKGGFDFYNEGEEKFIEFTDISDDMEYVLDGADIVQVIIPSSFIEYYAKVMSKFVTNDHLIFFNIAASMGSIRFMNVLEDRHIDVHPHFAEANTLTYGTRVDFNNAKVDLSLNVRRVFFSTFDRSELNESYEKVSKIYDYLVKEESLLKTNLENGNPEVHPGPTLLNVGRIDYSEEFSLYKEGITKHTVRLLHAIEIERLNLGRKLGFELSTAKESRIQRGYLERKDEDEPLNRLFNTSPVFSQIPGPNHVENRYLTEDIAYGLVLWSSLGRVIDVPTPNIDAVIMIASTILERDFFEEGLTIEELGLDKLGLE
MGSDKIHHHHHHMKIGIITICKVNNYGAELQAFATQKKLEQMGHNAEIINYLYYKDWHFKDTPLSQPFVPLDMKGKLSYWIKYRLMSWVVNKVLPIFNGNMRRRLHNYQSFIDSERFSAQYKSMDELYKTYPKYDIYMVGSDQVWNPSASSSIEPYFLTFAPKNAPKVTYASSFGVASIAPNLSKRYAKLLNNLDTIAVREQSGVELVKQLTGREAKLVVDPTLLLSKADWEPYMKPLAKISTQYILIYQLFPSQTVIDVALKIGKEKNLPVYNICKRAYGMKKIVGINNILDAGPSEFLWLIANATCMVTNSFHGTAFSVNFATPFCCVLNRKRKNNGRMISFLDKVDMSNRILYEDSIAELNVMTACSEVTNNHLRLLVNNSIDYLKSIIENKEQKC
MGSDKIHHHHHHMKIGILTFANVPNFGANLQALSTISYLQNHGYNPILIKWEPEDFEARFTSIKTQKQPQEHFHFVEKYLPQTKICRNDDDICQVIKDEKIEGIIIGSDAVLQCSSFWGRLDFPTKTVVRVNKTTSEREYPNAFWGTFYDKLGSKIPMVIMSASSQNAKYRLIARSVKHKMSNNLSHFEYISVRDIWTRDMITYITKGAIIPNITPDPVFAFNYNCAKFIPSKEDILLKYHLPENYVLVSMKCRMLDNMLWMDKLKSEMKKLYLECVALPMPTGIEFKHNFDFSITTPLPPLDWYALIKYAKGYIGENMHPIVVALHNAVPCFCFDTYGVLKYARCVCVEESSKIYDIMSRFSLLDNRINAYSRFWKCPPVDIVINRILHFDVIACQKTALNYYNNYEQMMSSILEVFKSK
MGSDKIHHHHHHMKIKHIFTDMDGTLLDSHGSVSDTNHWSIYYSDLPITLVSARSPLEMSNIVEKLQLRTPQIAFNGNLTFTQNQFGLQIIDKNPLASETVSQLLNYISTEFPNVSLNWYSLAHWYINKQDKGTFIQKAITGIEPKIKTFDGQSEIYKIMMIVFDSQELLQLQAQLNNLNIPNISVQQSGQWYLEITSDNKTKADAVQSILDNKNLDFQEIAAIGDGHNDIPLLQSAGLAIAVDNANSEVKKHVKMVVAKNTEHGVAEAISAINTINEQVI
MGSDKIHHHHHHMKILHLGKFYPLKGGMEKAILDIVRGISMQGVTCDLLCVSTEKAGVFPLNEHAHIYAMPSVCNVNSVRISPLLIPTLRKLCPNYDIIHIHCPNPMANLALYLSGYRGKVVLHWHSDILKQKYALKLYKPLQTWLIRRADVIIGTSPVYLENSPFLRGMEHKFRIVPLGCEAIVPSADRVSDIRKQYKGKRIIFALGRLIAYKGFRFLIEAARYLDDGYVVLIGGTGPLYNKLLKQINEENLQGKVCLLGYVTDDEVAQYYGACDVFCLSSVWKTEAFGLVQIEAMSCGKPVVATNIEGSGVPWVNRNGYSGLNVEPENPEALAKAIMKITSSEEAYRTYSRQARAHYNKMFVKERMLAGYEQVYASLYHEK
MGSDKIHHHHHHMKINMPENVQTILNKLHSNGYQAYIYGACIRDYLLGKEPINWDITTNALPNNTVVIFDENEGFTSIPSVEDYGIVTLHFKGESCQVNTFRTGEARRFADDISEDLLHKDFTMNSIAYNEQAGIVDPYNGVGDIEKRLIRCAQNPYEQMQEDSARILRAVRFESQLGFKIEAELLQAMKDLKDTVPASGSRVRNEFIQLLLSEQPSRSIRRLLELGLLERLIPELMPAIGFDTHSSYHDKDVFEHSLVVLDNTEPNLTLRLAALLHDIDKPNCLTIDEDGEGHCYGHASGGSEMAQAILGRLNFDRKTIQAVSSLIKEHMNDFGNISDLSIKRLIRRVGPDNIDRLFELQLADIKGSALSSRDPERITKIRNKCFEVLSRREPLTVHDLDISGYDLLSLGYPPGKKIGETMDYLLDQVIDNPSLNQRDTLIALLKNRK
MGSDKIHHHHHHMKISEVATPNFLLDLDQLEKNIDKIQQICTNNNKQLWPMLKTHKSTYIARLQKNAGASGFLVGTLDEGEALIKAGFEDIMLAYPYMGEVNINRIVTMASKINLICATDNIECAKAYSEAFSKSKIECKLLIIVDCGLHRFGVEPEKVVELATEISKLENIKIVGISSHPGQVYGCSSPEGVPDVCVQEDSSMEKAYKALTDNGFNIEIVASGSTPTVESEAACKTITAVRPGNYVYYDAIQIGLGCATEDMCALTVVCTVISKNSSGYYLIDCGSKCLGLDKGAHGNSSIVGYGRVCGHPELTIDSLSEEVGKIKVNGETDIKIGDRIRIIPNHSCSTANLTSNLLGFRGDTIEKVIEVDIRENSKQIIL
MGSDKIHHHHHHMKIVFLAPFGIRPKGTVVARMVPLAAELQALGHRVTIVAPPYTNPEDSGHTEEIRGVRLRNIRLAPGGAALSAPVMAWRMYRAAREEEPDLIHLFKPKGYGGLAAMLHLLTASRSSPLFLDTDDWEGRGGMNALHDYSPAQRLLFAFQEEWLPPRVRGVTVASRELEARIAAMGVAPERLLYLPNCVDDQPLGNGARVRARLGIDGNAPVVLLYTRFFEFSQEDLHRVFAGLSRKVPGIRFLVVGTGRNREEELLAAAARAEGFADSLHIAGWVEPDELPHWLAAGDVALYPFADTLVNRAKCPAKLTELMRAGVPVVADRVGQIAEYVEDGISGILCRPSAPDEMIARIAELLADPVRRRAVGTAGRERILSRFNWRDAAARLDAFYDNLTRRRNLA
MGSDKIHHHHHHMKIYLVGGAVRDSLLGLPVTEKDWVVVGATPEHLLAQGYQQVGKDFPVFLHPISRDEYALARTERKSGKGYTGFVCHAEPDVTLEQDLLRRDLTINAIARTERGDLIDPYHGRRDLDNRVLRHVSDAFSEDPLRVLRVARFAARFAHLGFQIAEETMALMQKMAHEGELAFLTPERVWKETEKALGTSSPDVYFQVLRDCGALAVLFPEIDNLYGVPAPAKWHPEIDTGIHTMMTVAMAARLSPDIDVRFATLCHDLGKGLTPPELWPRHLGHGPAGVKLVEALCQRLRVPNPIRDLAKLVAEYHDLVHTVQVLQPKTLLKLFDAIDVWRKPQRLEQLALTSEADARGRTSFEENPYPQGNYLREAFRVASQVSSASVVADGFKGIDVRNELARRRIHALADWKAQQPDVSSTS
MGSDKIHHHHHHMKKFLCFIMSVGLILSLVGCGKSGKTNIKVPAKSIDGKDSSISLDIMATNKFLYNVIKDISGNRHNVQFMFKNDIDVKQFDYTSDSINNVSKYNIFMYLGADFEPWASDFIGKLDKNSIATVDMSRGTKILNLDDKVQYGNITVEKNSYYWTDLNNYKTMLVNIKNSLEEKDPKSRDLYEKNFAAYIKKVNDCEKEFKGINDKLKGYTFVTNSSNFDYFFNYAGLDSVKVSEDELSKPDTSKELNDKLKDKEKICYIYSDDGSVQSNNAVIQKYKMKTLKFVTYDENSDYICIIKDNIKSMKELIK
MGSDKIHHHHHHMKKITKIEGNLANSFIKPKTRVVAYCRVSTDSNEQLVSLQAQKAHYETYIKANPEWEYAGLYYDEGISGTKKENRSDLLRMLSDCETGRIDLIITKSISRFARNTTDCLEMVRKLIDLGVHIYFEKENINTGSMESELMLSILSGLAESESISISENTKWAIQRRFQNGTFKISYPPYGYQNIDGQMIVNPKQAEVVKYIFAEVLSGKGTQKVANDLNQKGIPSKRRGRWTATTIRGILTNEKYTGDVILQKTYTDSHFNRHTNYGEKNMYLVENHHEAIISHEDFQAVDAILNQRAKEKSIEKRNSKYLNRYSFSSKIICSECGSTFKRRIHSSGRKYIAWCCSKHISNITECSMQFIRDDDIKTAFVTMMNKLIFGQKFILRPLLEGLRNQNNAASFHRIEELEIKIENNMEQSQVLTGLMAKGYLEPALYNKEKNSLVQERERLLAEKDQLTRFVNGNLAKVEEVNHLLRFATKSKMLTAYEDELFENYVEKIIVFSREEVGFELKCGITLKERLVN
MGSDKIHHHHHHMKKLVATAPRVAELVEYHDREVVEDEVKIKVQFASPKHGTEVVDFRGISPFIDEEFSPEWNLFVSRETNSARGIVFGEFQLGNMVVGEVVECGSKVTEYALGDIVCSYGPIMETVIVKAVDNYKLRKLPKGANWKNAVCYDPAQFAMSGVRDAHVRAGDYVVVVGLGAIGQIAIQLAKKAGASVVIGVDPLSHRREIAEKHGADATFDPITTDVGLEVKRLTGKLGADSIIETSGNAAALQAALRGIAYGGTISYVAFAKPFPEGFNLGREAHFNNAKIVFSRAASEPNPDYPRWDRKRIEETCWELLMNGYLDCTDIIDPVVPFADSAESYMKYVDQQPDLSIKMGITL
MGSDKIHHHHHHMKKNILHIHGFNSSPLSLKAEQTRKYMAKNFPNVGFYCPQLATTPANAMSQLEQLIETHDSNAKWYLIGSSLGGYFAHYLAKKYDCLAVLVNPAITPYELLHDYIGEQVNPYTEEVYQVTEDHMQQLKALEQTAPTIDCTEKNNYLVMVQTGDEVLNYQQAVEKYQYCRLIVQEGGDHSFINFDNCLPTISDFFQLDNTKRINSR
MGSDKIHHHHHHMKKRLLLNTDDYGWDLDANAAIIDLLQSDSIHNVTLLANYCDSDVLRAISPFQDRASLGIHVCLNSGQALSGSTRSTLHDACGNFYDSKTLFQRAFFGELNYSDVLLEIKSQYYYLSDHGIDITHADSHQHIHQYPFLSGMITQALHEIGVKNIRRCRPLEVKNIRRYLIYFFYQCTKNNLNKFNSPDVLVTDFTHSGFSFSTDVQPILKKLSLSHYSTIEWMCHPAREDKAGSYLQRKKEYDFLKKCDWDILLNGTGIERSQYRYI
